Biological target: SARS-CoV-2 RBD (RWT), wild-type Wuhan Hu-1 receptor-binding domain, residues 319-533 (SARS-CoV-2 Wuhan Hu-1)
Assay: BLI

koff: 0.0025 s⁻¹
B1: COVA2-15 (class 2 RBD-directed antibody) (antibody, V domains shown)
VH: QVQLLESGGGLVQPGGSLRLSCAASGFTFSSYAMSWVRQAPGKGLEWASAISGSGGSTYYADSVEGRFTISRDNSKNTLYLQMNSLRAEDTAVYYCAKDTGYCGDDCYIKLIRGGPDYWGQGTLVTVSS
VL: DIVMTQSPLSLPVTLGQPASISCRSSQSLVYSDGNTFLNWFQQRPGQSPRRLIYQVSNRDSGVPDRFSGSGSGTDFTLKISRVEAEDVGVYYCMQGTHWPRTFGQGTKLEIK

Source: PMC11503491
